Literature values as cited in article PMC10108826.

Target: sIL-6R soluble ECD (Homo sapiens) (UniProt P08887)
UniProt P08887, sequence (P08887 20-355): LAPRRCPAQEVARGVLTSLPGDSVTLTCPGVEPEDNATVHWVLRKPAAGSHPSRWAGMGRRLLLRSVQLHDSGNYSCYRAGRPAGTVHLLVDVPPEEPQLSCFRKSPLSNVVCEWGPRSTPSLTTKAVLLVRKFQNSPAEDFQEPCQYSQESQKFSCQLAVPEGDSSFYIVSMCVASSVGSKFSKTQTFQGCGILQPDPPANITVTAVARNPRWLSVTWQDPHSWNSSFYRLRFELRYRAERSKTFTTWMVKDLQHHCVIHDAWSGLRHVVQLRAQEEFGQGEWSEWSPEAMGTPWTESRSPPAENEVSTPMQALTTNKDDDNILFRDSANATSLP

Substance: IL-6 (from UniProt P05231)
- Kd: 1 nM
